Test results reported in article PMC3587421, “Native Tertiary Structure and Nucleoside Modifications Suppress tRNA’s Intrinsic Ability to Activate the Innate Immune Sensor PKR”.

Target: PKR dsRBD (P20) (UniProt P19525 1-184)
Experiment: EMSA; 0.1 mg/mL herring sperm DNA competitor; Hill 2.9; 25 mM Hepes-KOH pH 7.5, 10 mM NaCl, 5% glycerol, 5 mM DTT, 0.1 mM EDTA, 0.1 mg/mL tRNAPhe or herring sperm DNA; room temperature 10 min; 10% native gel, 0.5x TB, 16 C
Conditions: protein: recombinant; chain copies: 2; label: 5'-32P; tRNA fold, monomer, ~20 bp

PKR dsRBD (P20), sequence (P19525 1-184): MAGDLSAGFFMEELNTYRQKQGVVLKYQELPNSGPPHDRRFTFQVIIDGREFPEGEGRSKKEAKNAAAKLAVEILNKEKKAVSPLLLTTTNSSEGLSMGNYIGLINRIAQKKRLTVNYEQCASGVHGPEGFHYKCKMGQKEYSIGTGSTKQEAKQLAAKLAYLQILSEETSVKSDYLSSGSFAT

B1: T7 mt-tRNALeu WT (monomer) (structured_RNA)
RNA: UUAAGAUGGCAGAGCCCGGUAAUCGCAUAAAACUUAAAACUUUACAGUCAGAGGUUCAAUUCCUCUUCUUAACACCA
modifications: none (unmodified transcript)
B1 was tested, and the Kd was 5.1 µM.
